This passage reports IC50 (CAGA12 luciferase reporter gene assay) results from US20220372107A1.

In one assay the target is T1, activin A (UniProt P08476).
T1 sequence (looked up): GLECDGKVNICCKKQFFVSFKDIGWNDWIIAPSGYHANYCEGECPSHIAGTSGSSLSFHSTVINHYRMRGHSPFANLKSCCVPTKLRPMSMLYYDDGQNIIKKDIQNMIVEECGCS

The target in a further assay is T2, GDF11 (UniProt O95390).
T2 sequence (looked up): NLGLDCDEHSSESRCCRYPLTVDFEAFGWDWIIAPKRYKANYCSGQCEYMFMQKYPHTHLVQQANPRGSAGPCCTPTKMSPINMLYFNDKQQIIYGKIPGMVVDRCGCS

The next assay addresses T3, activin B (UniProt P09529).
T3 sequence (looked up): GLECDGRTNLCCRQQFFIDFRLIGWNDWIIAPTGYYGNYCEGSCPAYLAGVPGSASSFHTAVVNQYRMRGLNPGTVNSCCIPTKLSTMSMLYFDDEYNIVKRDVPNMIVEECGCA

Another assay has as its target TGFβ1 (human) (UniProt P01137).
Sequence of UniProt P01137 (P01137 279-390 limits assumed): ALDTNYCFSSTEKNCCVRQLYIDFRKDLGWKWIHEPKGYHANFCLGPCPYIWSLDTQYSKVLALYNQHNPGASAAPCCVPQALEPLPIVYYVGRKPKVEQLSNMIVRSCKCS
The target in the next assay is T4, TGFβ2 (human) (UniProt P61812).
T4 sequence (looked up): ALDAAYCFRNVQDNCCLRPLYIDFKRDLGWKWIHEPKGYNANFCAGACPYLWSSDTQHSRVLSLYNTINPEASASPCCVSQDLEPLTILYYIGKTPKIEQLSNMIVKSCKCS

Another assay deals with T5, BMP10 (UniProt O95393).
T5 sequence (looked up): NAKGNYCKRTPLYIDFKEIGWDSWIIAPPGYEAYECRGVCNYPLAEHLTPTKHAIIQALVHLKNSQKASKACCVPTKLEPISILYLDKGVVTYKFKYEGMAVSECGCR

The target of the next assay is T6, TGFβ3 (human) (UniProt P10600).
T6 sequence (looked up): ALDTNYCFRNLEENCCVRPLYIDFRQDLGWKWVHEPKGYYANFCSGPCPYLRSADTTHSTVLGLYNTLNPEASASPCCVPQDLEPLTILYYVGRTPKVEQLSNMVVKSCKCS

With TβRII-Fc homodimer (Fc fusion), the IC50 (CAGA12 luciferase reporter gene assay) with activin A was over 20 µg/mL; with GDF11 it was over 20 µg/mL; with activin B, over 20 µg/mL; with TGFβ1 (human), 0.017 nM; with TGFβ2 (human), over 20 µg/mL; with BMP10, over 20 µg/mL.

“ActRIIA-Fc:TβRII-Fc heterodimer (Fc fusion)”: the IC50 (CAGA12 luciferase reporter gene assay) was 1.28 nM with activin A; 18.1 nM with GDF11; 1.16 nM with activin B; 0.39 nM in the assay with TGFβ3 (human); 0.21 nM with TGFβ1 (human); over 20 µg/mL with TGFβ2 (human). The substance also displayed an IC50 (CAGA12 luciferase reporter gene assay) in the assay with BMP10 of over 20 µg/mL.
